# The supplement of paper PMC10126150
# ± gives the standard deviation of the averaged measurements.
# Test system: ATP
# Experiment: switch fluorescence ratio, 500 uM ATP over buffer (Cy3 cluster intensity, sum of 5 cycles each) (fold (ratio)); higher = stronger signal-on switching upon ATP binding; sequences stand for … in TCGTCGGCAGCGTCAGATGTGTATAAGAGACAGTTTTTTTTTTTTTTTTTTTTTTTTT…TC
# Conditions: aptamer strand: ATP DNA aptamer (quencher-CACCTGGGGGAGTATTGCGGAGGAAGG + anchor), 100 nM annealed; ATP concentration: 500 uM
# Method in brief: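 Five buffer/ATP imaging cycles were run on Cy3-labelled switching-strand clusters on a modified Illumina MiSeq flow-cell, with NaOH stripping and re-annealing between cycles. In each cycle, clusters annealed to 100 nM quencher-labelled ATP aptamer were imaged in selection buffer, then after 15 min with 500 uM ATP at 22 °C. Per cluster, the fluorescence ratio is summed target-cycle over summed buffer-cycle Cy3 intensity, averaged per switch-domain sequence. Only clusters within 100-1000 RFU were kept.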
# 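Note: ATP exposure 15 min at 22 °C before imaging.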
row,Sequence,switch fluorescence ratio
1,TCTGTGTTGG,0.98 ± 0.02
2,GATTAAGGT,0.992 ± 0.014
3,CATTGTTGAC,0.961 ± 0.02
4,GATGAATTGC,1.01 ± 0.033
5,TATTTTTGGG,0.99 ± 0.023
6,GAGTACAAAG,1.02 ± 0.0041
7,AAGTTCAGTA,0.9673 ± 0.0084
8,CGGGGTGTTA,1.07 ± 0.057
9,CGGGGATTTC,1 ± 0.027
10,AGAGTGCCTG,1.04 ± 0.058
11,TTTAAGTGGG,1.04 ± 0.14
12,ATCCTATTT,1.01 ± 0.028
13,CGATATAAGT,1 ± 0.025
14,AGCTTGTCGG,1.01 ± 0.025
15,TGCTACAGGT,1.04 ± 0.022
16,AGAGGGTGGG,0.994 ± 0.04
17,AATGTGGGTA,0.982 ± 0.015
18,CGTATCCACT,0.99569 ± 0.00085
19,TTCGGGCGGA,0.98 ± 0.011
20,GTTTTTTTAG,1 ± 0.033
21,TTATTTATTA,1.0338 ± 0.00047
22,TCGTGCTTGG,1 ± 0.029
23,TGGGTTAGCT,1.04 ± 0.039
24,CGATAAAGAG,1.02 ± 0.013
25,GCTTATTATT,1.023 ± 0.0026

row,Sequence,switch fluorescence ratio
1,GTTTTCAAGT,0.979 ± 0.039
2,ATCAGGGAGT,1 ± 0.011
3,CGCCAAATG,1.033 ± 0.0019
4,TTTGGGGGAG,1.01 ± 0.027
5,AGTTGTGTTT,0.966 ± 0.043
6,TGACTGGGTA,1 ± 0.021
7,TTTAAAATTT,1.01 ± 0.041
8,AATGCGGTAT,1.01 ± 0.023
9,ATGTATATGC,1.08 ± 0.069
10,TTAGCATAGT,0.98 ± 0.024
11,TGGTTAATGG,0.989 ± 0.038
12,GGGGTCCTAA,0.986 ± 0.011
13,TTTATTAGAT,0.982 ± 0.022
14,TTATGAAGGT,1.02 ± 0.06
15,TTTCACATGG,1.052 ± 0.0044
16,AGTTACCGGG,0.998 ± 0.044
17,TTTTAGACAG,1.01 ± 0.017
18,AGAAGTGTTT,1.022 ± 0.0063
19,ACGCAGCTGT,1.379 ± 0.0027
20,ATAGGGGATT,1 ± 0.038
21,TCAGTCATGT,0.992 ± 0.028
22,CAAGTCCGTT,1 ± 0.037
23,GGGATTTGG,0.985 ± 0.015
24,GCTCTAGTGG,1.01 ± 0.022
25,CTAAGCCAAT,1.21 ± 0.023

row,Sequence,switch fluorescence ratio
1,TATTTTATTG,1.03 ± 0.02
2,GGGTTTTGCG,0.9735 ± 0.0082
3,GTTTTATGCT,1.01 ± 0.017
4,GGGATTGTGT,0.963 ± 0.055
5,TCGATGCAAG,1.23 ± 0.015
6,AGGATATGGA,0.997 ± 0.022
7,GGGATTTATG,1.01 ± 0.036
8,CGTTGCAAAG,1.03 ± 0.022
9,GGTTTAATTC,1.01 ± 0.012
10,CTGGCGCGGG,1.02 ± 0.042
11,TATGAAAGGG,1.13 ± 0.16
12,GGTTAAAGCG,1.02 ± 0.013
13,TGTTGCAAGT,0.976 ± 0.017
14,GGGCAATAAC,3.95 ± 0.13
15,TTTGGAGGAT,0.978 ± 0.029
16,GGCCTAGTTT,0.9799 ± 0.0073
17,GGCATTTGTA,1 ± 0.02
18,AATAGGGCAG,1.009 ± 0.0078
19,TTTAGGTAGA,1.02 ± 0.014
20,CGGTGGGGGG,1.04 ± 0.03
21,TTTGGGGTGC,1.09 ± 0.12
22,TATGGCGGTG,0.989 ± 0.021
23,CTGTGCGTGG,0.973 ± 0.029
24,GGTTGGAGTT,0.984 ± 0.0049
25,ATCATTAACT,1.02 ± 0.013

row,Sequence,switch fluorescence ratio
1,GATCAGCCCG,1.016 ± 0.005
2,ACGGCATTTC,1.28 ± 0.047
3,CTTAGACCCC,1.01 ± 0.02
4,CTGGGGACCT,1.1 ± 0.066
5,CGCCGTTGCG,0.989 ± 0.065
6,AACCCATTTG,1.29 ± 0.48
7,AGTTATTTGA,1 ± 0.031
8,TAGTACGGAT,1.01 ± 0.007
9,TTGGGGATTT,0.997 ± 0.029
10,AGGGGGTGTC,1.075 ± 0.0097
11,TTCTGTTTTA,1.05 ± 0.021
12,CCAGA,1.022 ± 0.006
13,GAATGGGGAA,1.02 ± 0.021
14,TATCCCTGCT,1 ± 0.027
15,AGTGTTAGTG,0.997 ± 0.037
16,GGATTAAGGG,0.993 ± 0.024
17,AAAAAATGCC,1.07 ± 0.091
18,GCGCAACAGG,1.04 ± 0.015
19,ATGTGCCGTC,1.04 ± 0.048
20,TAGGTAGTTG,0.952 ± 0.051
21,TACCAGGGTA,1.05 ± 0.047
22,TGCACGGCTT,1.13 ± 0.03
23,GTAGCAACGG,1.59 ± 0.1
24,GGTGCCACTT,1.03 ± 0.024
25,ATCGAGGCAC,1.056 ± 0.0061

row,Sequence,switch fluorescence ratio
1,ACGTGTTAAT,1.005 ± 0.0017
2,AGTGCCGGGA,1.04 ± 0.034
3,GGTTCGTATT,0.975 ± 0.038
4,GGGGGTCCCG,1 ± 0.012
5,TTTGGGGTGT,1.01 ± 0.06
6,ATATTCTGGG,0.969 ± 0.015
7,TGTTATTAGT,1.01 ± 0.022
8,ATGGGTCAAT,1 ± 0.014
9,GGGAAGAACC,1.02 ± 0.013
10,CTAGATGGGT,1.01 ± 0.046
11,GATGGTATGG,1.007 ± 0.0052
12,TTTTCTAGGT,0.982 ± 0.021
13,CAATAGGCAG,0.9824 ± 0.0053
14,TTCAAAGTTT,0.993 ± 0.015
15,GCTATTAGGA,0.984 ± 0.033
16,AGGTTTGTGT,1.01 ± 0.024
17,GGAATTCGAT,1.004 ± 0.006
18,ATGGTTTTGT,0.959 ± 0.022
19,TAGGGAGATG,0.996 ± 0.056
20,CGTCCGGTCG,1.02 ± 0.064
21,ACCATTAATT,0.991 ± 0.029
22,TTTTATCCCC,1.08 ± 0.1
23,ACATCCAACG,1.12 ± 0.028
24,TATAAGTTCC,1.07 ± 0.075
25,TTTTTCCTCT,1.036 ± 0.0026

row,Sequence,switch fluorescence ratio
1,TGGGAAATTT,1.1 ± 0.12
2,TTTAGATGGA,0.975 ± 0.021
3,ATGTGGGCTG,0.979 ± 0.045
4,TCGTCGTAGC,1.05 ± 0.072
5,GTCACTATTG,1.02 ± 0.0022
6,GTTTGTACTC,0.997 ± 0.037
7,AATCGTATCC,1.01 ± 0.029
8,CTTCTCTTCA,1.02 ± 0.03
9,ACTCCTAACC,1.26 ± 0.047
10,CAGGGAATAA,0.997 ± 0.011
11,ACTTTGAGAT,1.03 ± 0.012
12,GGTTTGGGCA,1.02 ± 0.013
13,TGAATGGTCT,1.01 ± 0.03
14,GGTTTAGGGC,0.992 ± 0.066
15,CCAATCAGGT,1.08 ± 0.097
16,TTGATTTAAT,1 ± 0.028
17,AGGGCCGGCG,1 ± 0.031
18,AACTAGGCGC,0.9875 ± 0.0065
19,GATGGGAGTG,1 ± 0.029
20,TTAATTTTGT,1 ± 0.012
21,AAAATTTGTG,0.995 ± 0.017
22,CTGCGTGGAG,1.03 ± 0.026
23,GTTATGCTAT,0.996 ± 0.017
24,GAAAGGCGGG,0.985 ± 0.0041
25,CACCGTGTCT,1.02 ± 0.016

row,Sequence,switch fluorescence ratio
1,GGGTTGAAGG,0.9875 ± 0.0022
2,GGGTCGGGAG,0.979 ± 0.027
3,GGGGCAAGGA,0.987 ± 0.023
4,TCAAGGCACC,1.1 ± 0.023
5,AGGTTAACAG,0.9909 ± 0.0073
6,TGATCCGGAT,1.02 ± 0.09
7,AAGGGTGGTC,0.957 ± 0.012
8,AAAGGCGTCA,1.01 ± 0.016
9,GGGCCTAGCG,0.978 ± 0.019
10,ATCGCGGATT,0.994 ± 0.023
11,AGGCCCGAGC,0.98 ± 0.073
12,TTTTGGTGAG,0.972 ± 0.025
13,GGACGAGGTG,0.9756 ± 0.0049
14,TAGGTTGATG,0.981 ± 0.035
15,TGCTCACGGT,1.02 ± 0.041
16,GGTCGGGCTT,1.01 ± 0.034
17,GTTTTTGTTT,1 ± 0.033
18,ACTTTAGCGG,0.99001 ± 0.0002
19,CATAGTTGTT,1.025 ± 0.0018
20,TACTAAGTTG,1.07 ± 0.055
21,AGGGGCCGGT,1.01 ± 0.014
22,CGTGGGACTC,1.1401 ± 0.00046
23,GTGTGGGT,1.002 ± 0.0028
24,GGGAATGGAA,0.995 ± 0.014
25,TAAGAGCTGA,0.985 ± 0.023

row,Sequence,switch fluorescence ratio
1,TCAGAAATAG,1.24 ± 0.15
2,TAAGTGAGGT,0.99677 ± 0.00077
3,GATTTTATTG,1.01 ± 0.017
4,CGAGGGGTTC,0.9908 ± 0.0044
5,TATTTTGGTT,0.999 ± 0.015
6,TGTTGCGGAT,1.24 ± 0.29
7,GTGACATGGA,1 ± 0.014
8,CAATCGACTC,1.047 ± 0.0037
9,CGCGGGAAAA,1.01 ± 0.099
10,GGCAAAGGTA,0.968 ± 0.014
11,GTGGTGAGGA,0.953 ± 0.038
12,CGCGGGAATG,1.05 ± 0.033
13,AACGTAAATA,1.11 ± 0.053
14,TGGGCTCCTT,1 ± 0.043
15,GTTTTGGTTT,0.986 ± 0.024
16,GTGATGGAAA,0.964 ± 0.016
17,GTTCTTGGTG,1.01 ± 0.0089
18,TATGATGTCG,1.01 ± 0.027
19,GAAGTGTTGG,1.004 ± 0.0049
20,TTACTTGAGA,0.99 ± 0.032
21,AAGATAGGGG,1 ± 0.023
22,GTTGTAATCA,0.98 ± 0.024
23,TACGGGCATA,1.1 ± 0.049
24,CTGGGGGTTG,0.989 ± 0.044
25,GGGATGGGCG,1.03 ± 0.031
